Literature values in publication PMC3008546.

Target: DNA ligase IV BRCT (Homo sapiens) (UniProt P49917)
Sequence (P49917 654-911): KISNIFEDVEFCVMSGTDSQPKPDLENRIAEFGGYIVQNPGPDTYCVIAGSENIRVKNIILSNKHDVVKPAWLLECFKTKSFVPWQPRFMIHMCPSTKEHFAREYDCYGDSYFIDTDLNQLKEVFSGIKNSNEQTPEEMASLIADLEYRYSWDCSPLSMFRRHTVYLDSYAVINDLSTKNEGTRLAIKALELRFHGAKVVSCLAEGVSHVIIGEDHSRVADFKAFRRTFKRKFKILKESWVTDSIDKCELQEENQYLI

XRCC4, sequence (Q13426 266-336): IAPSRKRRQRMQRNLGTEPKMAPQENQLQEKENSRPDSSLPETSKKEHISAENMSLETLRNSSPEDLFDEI

For XRCC4 (from UniProt Q13426), the Kd is listed as 1 nM.
